Experimental data published in US7585638B2, “Test system for measuring the interaction of STAT 6 with NCoA-1” (Boehringer Ingelheim International GmbH, priority 2001, dated 2009).
Blank lines part the entries; values can stand above or below the molecule they belong to.

Key:
[1] = target: T1, interaction of STAT6 and NCoA-1 (Mus musculus, UniProt P70365); test: GST pull-down assay of [35S]-labeled NCoA-1 with GST-STAT6-TAD in presence of peptides; type: binding, human; details: 100 μg peptide; 4 μg GST-STAT6-TAD; SDS-PAGE and fluorography
T1 construct: made in house; host or cells: E. coli for GST-STAT6-TAD
Procedure: 4 μg GST or GST-STAT6-TAD fusion protein purified from E. coli, are bound to 20 μl glutathione-Sepharose and are incubated with 1.5 μl [^35S]-labeled NCoA-1 in the presence of 100 μg peptide 1, or peptide 2, or peptide 3 respectively, as indicated. Material bound to the glutathione-Sepharose is recovered from the binding reaction, extensively washed and analyzed by SDS-PAGE and fluorography (lanes 2-6). Input control in lane 1 reflects 10% of the total amount of ^35S-labeled NCoA-1 used in the experiments.

GST-STAT6 (aa 677-847) = target: T2, GST-STAT6 (aa 677-847) (Homo sapiens, UniProt P42226); test: STAT6/NCoA-1-ELISA (His-NCoA-1 bound to coated GST-STAT6); type: binding; details: 500 ng GST-STAT6 (677-847) coated, 250 ng His-NCoA-1 (212-463) added; α-Penta-His and α-mouse-HRP; average of three experiments
T2 construct: made in house; host or cells: E. coli
Procedure: The following is an illustration of how an interaction of STAT6 with NCoA-1 can be performed in order to identify a substance which can modulate said interaction.
Substrate solution: dissolve a phosphate citrate buffer tablet (Sigma) in 100 ml water to obtain 0.05 M phosphate citrate buffer pH 5.5. Dissolve a tablet of o-Phenylendiamine dihydrochloride (Sigma) in 30 ml of phosphate citrate buffer in the dark. Prior to use add 30 μl of 30% H2O2. Recombinant Proteins: GST-STAT6 aa 677-847 and His-tagged NCoA-1 aa 212-463 are expressed in E. coli, purified by affinity-chromatografie and dialyzed against 1×PBS according to the art. Sequences of Recombinant Proteins: GST-STAT6 aa 677-847 protein, SEQ ID NO:1 His-tagged NCoA-1 aa 212-463, SEQ ID NO: 3 Antibodies: 1. Antibody: Penta-His, Quiagen (Cat. No. 34660) 2. […] Determine the optical density of each well within 15 minutes, using an ELISA reader set to […]. […]
500 ng of E. coli expressed and affinity purified GST-STAT6 TAD (amino acid, aa 677-847) is coated to 96 well ELISA-plates as indicated. After incubation with 250 ng of E. coli expressed, affinity purified His-NCoA-1 (aa 212-463), bound protein is detected by mouse anti-His-antibody and peroxidase coupled sheep anti-mouse-antibody as indicated. […] Conversion of peroxidase substrate O-phenylenediamine is measured at 492 nm. […]

T1 sequence (P70365 whole entry): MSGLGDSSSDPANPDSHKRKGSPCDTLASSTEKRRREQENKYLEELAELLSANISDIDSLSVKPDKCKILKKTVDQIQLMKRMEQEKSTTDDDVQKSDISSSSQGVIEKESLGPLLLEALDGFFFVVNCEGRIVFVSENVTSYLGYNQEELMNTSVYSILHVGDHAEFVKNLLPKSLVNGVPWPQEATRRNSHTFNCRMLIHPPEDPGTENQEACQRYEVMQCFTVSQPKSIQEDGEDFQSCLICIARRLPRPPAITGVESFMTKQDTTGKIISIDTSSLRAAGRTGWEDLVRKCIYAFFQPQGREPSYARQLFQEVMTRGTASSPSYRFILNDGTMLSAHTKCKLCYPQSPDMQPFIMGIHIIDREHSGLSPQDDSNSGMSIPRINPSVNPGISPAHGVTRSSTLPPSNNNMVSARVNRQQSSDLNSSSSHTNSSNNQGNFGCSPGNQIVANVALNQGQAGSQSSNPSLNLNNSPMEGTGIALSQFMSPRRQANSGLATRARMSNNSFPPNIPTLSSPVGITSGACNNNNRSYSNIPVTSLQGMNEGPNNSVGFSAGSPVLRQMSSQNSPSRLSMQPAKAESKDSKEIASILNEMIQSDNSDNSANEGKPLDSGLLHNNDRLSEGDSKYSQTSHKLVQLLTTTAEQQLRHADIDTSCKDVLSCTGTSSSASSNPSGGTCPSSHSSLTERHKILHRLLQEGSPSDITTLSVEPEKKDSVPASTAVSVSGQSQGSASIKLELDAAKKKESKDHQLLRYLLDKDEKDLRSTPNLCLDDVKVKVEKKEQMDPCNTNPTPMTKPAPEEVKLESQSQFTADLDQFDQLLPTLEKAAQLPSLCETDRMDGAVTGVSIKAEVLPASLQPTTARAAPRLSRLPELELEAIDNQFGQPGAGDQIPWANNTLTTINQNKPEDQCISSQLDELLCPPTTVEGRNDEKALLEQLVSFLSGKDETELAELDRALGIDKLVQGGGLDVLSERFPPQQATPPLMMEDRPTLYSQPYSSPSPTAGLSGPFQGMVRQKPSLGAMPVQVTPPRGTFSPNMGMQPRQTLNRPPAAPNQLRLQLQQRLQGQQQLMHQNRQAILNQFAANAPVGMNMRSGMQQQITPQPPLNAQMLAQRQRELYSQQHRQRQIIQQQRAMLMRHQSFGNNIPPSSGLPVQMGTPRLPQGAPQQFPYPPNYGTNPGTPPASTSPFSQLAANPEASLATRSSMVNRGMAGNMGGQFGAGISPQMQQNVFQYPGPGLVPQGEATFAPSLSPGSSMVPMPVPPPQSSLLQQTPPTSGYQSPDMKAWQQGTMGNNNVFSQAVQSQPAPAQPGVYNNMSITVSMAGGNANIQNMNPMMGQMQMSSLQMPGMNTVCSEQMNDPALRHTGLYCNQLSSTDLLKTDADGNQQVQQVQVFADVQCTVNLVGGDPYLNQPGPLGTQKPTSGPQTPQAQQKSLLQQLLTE
T2 sequence (P42226 with tags, fused parts or gaps): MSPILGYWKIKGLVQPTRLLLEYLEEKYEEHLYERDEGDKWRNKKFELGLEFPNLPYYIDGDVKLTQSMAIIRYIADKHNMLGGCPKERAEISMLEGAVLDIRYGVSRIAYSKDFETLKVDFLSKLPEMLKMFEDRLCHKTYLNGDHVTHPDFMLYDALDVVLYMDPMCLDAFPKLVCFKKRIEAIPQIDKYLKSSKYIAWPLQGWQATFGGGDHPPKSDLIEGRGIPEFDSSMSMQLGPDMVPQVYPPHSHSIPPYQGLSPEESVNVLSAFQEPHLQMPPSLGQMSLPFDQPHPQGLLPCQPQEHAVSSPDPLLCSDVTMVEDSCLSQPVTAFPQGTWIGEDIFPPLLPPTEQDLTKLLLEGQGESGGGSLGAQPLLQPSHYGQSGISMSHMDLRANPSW

Molecule: peptide 1: peptide derived from the STAT6 trans-activation domain, amino acid 794 to 814, SEQ ID NO: 6, contains LXXLL motif (LLPPTEQDLTKLLLEGQGESG; Part of SEQ ID 5; listed as Homo sapiens)
binding of GST-STAT6-TAD with NCoA-1 in presence of peptide [1]: less binding

Molecule: peptide 2: peptide derived from the STAT6 trans-activation domain, amino acid 817 to 830 (SLGAQPLLQPSHYG; UniProt P42226 817-830, looked up, fragment)
binding of GST-STAT6-TAD with NCoA-1 in presence of peptide [1]: does not alter the binding capacity of GST-STAT6-TAD with NCoA-1 significantly

Molecule: peptide 3: peptide derived from the STAT6 trans-activation domain, amino acid 830 to 847 (GQSGISMSHMDLRANPSW; UniProt P42226 830-847, looked up, fragment)
binding of GST-STAT6-TAD with NCoA-1 in presence of peptide [1]: does not alter the binding capacity of GST-STAT6-TAD with NCoA-1 significantly

Extinction 493 nm (GST-STAT6 (aa 677-847)): 0.795
B1: His-NCoA-1: His-tagged NCoA-1 fragment aa 212-463, expressed in E. coli, affinity purified, SEQ ID NO: 3 (protein)
chain: MHHHHHHSSGLVPRGSGMKETAAAKFERQHMDSPDLGTDDDDKAMGYLWIQEACQRYEVMQCFTVSQPKSIQEDGEDFQSCLICIARRLPRPPAITGVESFMTKQDTTGKIISIDTSSLRAAGRTGWEDLVRKCIYAFFQPQGREPSYARQLFQEVMTRGTASSPSYRFILNDGTMLSAHTKCKLCYPQSPDMQPFIMGIHIIDREHSGLSPQDDSNSGMSIPRINPSVNPGISPAHGVTRSSTLPPSNNNMVSARVNRQQSSDLNSSSSHTNSSNNQGNFGCSPGNQIVANVALNQGQAGSLEHHHHHH
modifications: His tag
